From patent US20250250357A1 (NANJING ZAIMING PHARMACEUTICAL, published 2025)
Changes are numbered by the printed parent chain.

T1: human MSLN-R1-his protein (human, UniProt Q13421 296-390)
T1 construct: Region 1 of human mesothelin, made in HEK293E cells, His-tagged; also called human MSLN-R1 protein; hMSLN-R1-his; not shown: His tag
T1 chain: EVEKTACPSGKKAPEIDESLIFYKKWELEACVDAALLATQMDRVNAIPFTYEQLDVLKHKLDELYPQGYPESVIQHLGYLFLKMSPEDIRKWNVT

B1: S009-F8-29.1 (antibody, human IgG1, kappa, V domains shown)
VH: QVQLQQSGAELARPGASVKMSCKASGYTFISYTMHWVKQRPGQGLEWIGYINPSSGYTKYNQKFKDKATLTADKSSSTAYMQLNSLTSEDSAVYYCARYYSNPDYYAMDYWGQGTSVTVSS
VL: QIVLTQSPAIMSASPGEKVTITCSASSSVSYMHWFQQKPGTSPKLWIYSTSNLASGVPARFSGSGSGTSYSLTISRMEAEDAATYYCQQRSSYPLTFGGGTKLELKR
B2: S009-F8-33.12 (antibody, human IgG1, kappa, V domains shown)
VH: EVQLQQSGAELVKPGASVKLSCTASAFNIKDYYMHWVKQRTEQGLEWIGRIDPEDGETKYAPKFQGKATITADTSSNTAYLQLSSLTSEDTAVYYCASGSGTGAMDYWGQGTSVTVSS
VL: DIVMTQSQKFMSTSVGDRVSITCKASQNVRTAVGWYQQKPGQSPKALIYLASNRHTGVPDRFTGSGSGTDFTLTISNVQSEDLADYFCLQHWNSPYTFGGGTKLVIKR
B3: S009-F8-31.22 (antibody, human IgG1, kappa, V domains shown)
VH: EVQLVESGGDLVKPGGSLKLSCAASGFTFSTYGMSWVRQTPDKRLEWVATISSGGSYTYYPDSLKGRFTISRDNAKNTLYLQMSSLKSEDTAMYYCARHEGYYYGKDYWGQGTTLTVSS
VL: DIVLTQSPATLSVTPGDSVSLSCRASHSISNNLHWYQQKSHESPRLLIKYASQSISGIPSKFSGSGSGTDFTLSINSVETEDFGMYFCQQTNSWPLTFGAGTKLELKR
B4: S009-F8-32.3 (antibody, human IgG1, kappa, V domains shown)
VH: QVQLKESGPGLVAPSQSLSITCTVSGFSLSSYAISWVRQPPGKGLEWLGVIWTGGGTNYNSALKSRLSISKDNSKSQVFLKMNSLQTDDTARFYCARNNYGRLDYAMDYWGQGTSVTVSS
VL: DVVMTQTPLSLPVSLGDQASISCRSSQSLVHGNGNTYLHWYLQKPGQSPKLLIYKVSNRFSGVPDRFSGSGSGTDFTLKISRVETEDLGVYFCSQSTHVPFTFGSGTKLEIKR
B5: S009-F8-27.1 (antibody, human IgG1, kappa, V domains shown)
VH: EVQLVESGGGLVKPGGSLKLSCAASGFTFSSYAMSWVRQTPEKRLEWVATISDGGNYTYYPDNVKGRFTISRDNAKNNLYLQMSHLKSEDTAMYYCAGDRGYPYAMDSWGQGTSVTVSS
VL: NIMMTQSPSSLAVSAGEKVTMSCKSSQSVLYSSNQKNYLAWYQQKPGQSPKLLIYWASTRESGVPDRFTGSGSGTDFTLTISNVHAEDLAVYYCHQYLSSLTFGAGTKLELKR
B6: S009-F8-28.23 (antibody, human IgG1, kappa, V domains shown)
VH: B5 VH with G10D, N56S, K65E, P103S, M106L, S108Y
VL: B5 VL with N83S, H85Q

Biological target: T1, human MSLN-R1-his protein
Experiment: ELISA on coated MSLN-R1; antibody 1 nM
Procedure: (§1) The plate was sealed with a plastic film and incubated at 4° C. overnight. The next day, the plate was washed twice with PBST, and a blocking buffer [PBS+2% (w/w) BSA] was added for blocking at room temperature for 2 h. The blocking buffer was discarded, and a chimeric antibody or negative control antibody serially diluted from 100 nM was added at 50 μL/well. After incubation at 37° C. for 2 h, the plate was washed 3 times with PBST. […] After incubation at 37° C. for 2 h, the plate was washed 5 times with PBST. A TMB substrate was added at 50 μL/well for incubation at room temperature for 5-10 min, and then a stop solution (1.0 N HCl) was added at 50 μL/well.

OD450 [OD450] | Binder
0.04 | B1
2.45 | B2
2.05 | B3
2.6 | B4
0.05 | B5
0.04 | B6

Biological target: T2, human MSLN-R2-his protein (human, UniProt Q13421 391-486)
T2 construct: Region 2 of human mesothelin, made in HEK293E cells, His-tagged; also called human MSLN-R2 protein; hMSLN-R2-his; not shown: His tag
T2 sequence (Q13421 other isoform, or with tags, fused parts or gaps): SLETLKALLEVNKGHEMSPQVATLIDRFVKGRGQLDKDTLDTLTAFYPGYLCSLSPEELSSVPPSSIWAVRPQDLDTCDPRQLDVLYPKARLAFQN
Experiment: ELISA on coated MSLN-R2; antibody 1 nM

OD450 [OD450] | Binder
0.04 | B1
0.04 | B2
0.04 | B3
0.04 | B4
0.05 | B5
0.04 | B6

Biological target: T3, human MSLN-R3-his protein (human, UniProt Q13421 487-598)
T3 construct: Region 3 of human mesothelin, made in HEK293E cells, His-tagged; also called human MSLN-R3 protein; hMSLN-R3-his; not shown: His tag
T3 sequence (Q13421 495-606): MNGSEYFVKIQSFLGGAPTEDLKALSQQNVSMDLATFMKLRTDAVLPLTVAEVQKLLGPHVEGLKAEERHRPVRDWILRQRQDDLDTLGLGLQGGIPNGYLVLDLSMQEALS
Experiment: ELISA on coated MSLN-R3; antibody 1 nM

OD450 [OD450] | Binder
0.06 | B1
0.04 | B2
0.05 | B3
0.04 | B4
0.04 | B5
0.04 | B6

Biological target: T1, human MSLN-R1-his protein
Experiment: ELISA on coated MSLN-R1; antibody 10 nM

OD450 [OD450] | Binder
0.04 | B1
2.66 | B2
2.17 | B3
2.79 | B4
0.08 | B5
0.04 | B6

Biological target: T2, human MSLN-R2-his protein
Experiment: ELISA on coated MSLN-R2; antibody 10 nM
Procedure: as §1

OD450 [OD450] | Binder
0.04 | B1
0.04 | B2
0.05 | B3
0.05 | B4
0.05 | B5
0.04 | B6

Biological target: T3, human MSLN-R3-his protein
Experiment: ELISA on coated MSLN-R3; antibody 10 nM
Procedure: as §1

OD450 [OD450] | Binder
0.06 | B1
0.05 | B2
0.07 | B3
0.04 | B4
0.05 | B5
0.05 | B6

Biological target: T1, human MSLN-R1-his protein
Experiment: ELISA on coated MSLN-R1; antibody 0.1 nM

OD450 [OD450] | Binder
0.04 | B1
1.6 | B2
1.95 | B3
1.64 | B4
0.05 | B5
0.04 | B6

Biological target: T1, human MSLN-R1-his protein
Experiment: ELISA on coated MSLN-R1; antibody 100 nM
Procedure: as §1

OD450 [OD450] | Binder
0.05 | B1
2.64 | B2
2.12 | B3
2.81 | B4
0.35 | B5
0.05 | B6

Biological target: T2, human MSLN-R2-his protein
Experiment: ELISA on coated MSLN-R2; antibody 0.1 nM

OD450 [OD450] | Binder
0.04 | B1
0.04 | B2
0.05 | B3
0.04 | B4
0.04 | B5
0.04 | B6

Biological target: T2, human MSLN-R2-his protein
Experiment: ELISA on coated MSLN-R2; antibody 100 nM

OD450 [OD450] | Binder
0.06 | B1
0.05 | B2
0.08 | B3
0.07 | B4
0.05 | B5
0.05 | B6

Biological target: T3, human MSLN-R3-his protein
Experiment: ELISA on coated MSLN-R3; antibody 0.1 nM
Procedure: as §1

OD450 [OD450] | Binder
0.04 | B1
0.03 | B2
0.04 | B3
0.04 | B4
0.07 | B5
0.04 | B6

Biological target: T3, human MSLN-R3-his protein
Experiment: ELISA on coated MSLN-R3; antibody 100 nM

OD450 [OD450] | Binder
0.1 | B1
0.06 | B2
0.13 | B3
0.07 | B4
0.06 | B5
0.07 | B6

Biological target: T1, human MSLN-R1-his protein
Experiment: ELISA on coated MSLN-R1; antibody 0.01 nM

OD450 [OD450] | Binder
0.04 | B1
0.43 | B2
0.8 | B3
0.42 | B4
0.04 | B5
0.04 | B6

Biological target: T2, human MSLN-R2-his protein
Experiment: ELISA on coated MSLN-R2; antibody 0.01 nM

OD450 [OD450] | Binder
0.04 | B1
0.04 | B2
0.04 | B3
0.04 | B4
0.04 | B5
0.04 | B6

Biological target: T3, human MSLN-R3-his protein
Experiment: ELISA on coated MSLN-R3; antibody 0.01 nM
Procedure: as §1

OD450 [OD450] | Binder
0.04 | B1
0.04 | B2
0.04 | B3
0.04 | B4
0.04 | B5
0.07 | B6

Biological target: T1, human MSLN-R1-his protein
Experiment: ELISA on coated MSLN-R1; antibody 0.001 nM
Procedure: as §1

OD450 [OD450] | Binder
0.04 | B1
0.11 | B2
0.19 | B3
0.11 | B4
0.04 | B5
0.05 | B6

Biological target: T2, human MSLN-R2-his protein
Experiment: ELISA on coated MSLN-R2; antibody 0.001 nM
Procedure: as §1

OD450 [OD450] | Binder
0.04 | B1
0.04 | B2
0.04 | B3
0.04 | B4
0.05 | B5
0.04 | B6

Biological target: T3, human MSLN-R3-his protein
Experiment: ELISA on coated MSLN-R3; antibody 0.001 nM
Procedure: as §1

OD450 [OD450] | Binder
0.15 | B1
0.04 | B2
0.04 | B3
0.04 | B4
0.05 | B5
0.04 | B6

Biological target: T1, human MSLN-R1-his protein
Experiment: ELISA on coated MSLN-R1; antibody 0.0001 nM

OD450 [OD450] | Binder
0.04 | B1
0.05 | B2
0.08 | B3
0.06 | B4
0.04 | B5
0.04 | B6

Biological target: T2, human MSLN-R2-his protein
Experiment: ELISA on coated MSLN-R2; antibody 0.0001 nM

OD450 [OD450] | Binder
0.05 | B1
0.04 | B2
0.05 | B3
0.04 | B4
0.04 | B5
0.04 | B6

Biological target: T3, human MSLN-R3-his protein
Experiment: ELISA on coated MSLN-R3; antibody 0.0001 nM
Procedure: as §1

OD450 [OD450] | Binder
0.06 | B1
0.04 | B2
0.04 | B3
0.04 | B4
0.04 | B5
0.04 | B6

Biological target: T1, human MSLN-R1-his protein
Experiment: ELISA on coated MSLN-R1; no antibody (blank)

OD450 [OD450] | Binder
0.04 | B1
0.04 | B2
0.05 | B3
0.04 | B4
0.05 | B5
0.04 | B6

Biological target: T2, human MSLN-R2-his protein
Experiment: ELISA on coated MSLN-R2; no antibody (blank)
Procedure: as §1

OD450 [OD450] | Binder
0.04 | B1
0.04 | B2
0.05 | B3
0.04 | B4
0.05 | B5
0.04 | B6

Biological target: T3, human MSLN-R3-his protein
Experiment: ELISA on coated MSLN-R3; no antibody (blank)

OD450 [OD450] | Binder
0.04 | B1
0.03 | B2
0.05 | B3
0.04 | B4
0.05 | B5
0.04 | B6
